Starred links: 1 amine or outer side, 2 acyl side, 3 side chain; linkers in the order of their positions; H or OH if unused. Positions of bridges follow the written chain, without caps; N, C: chain ends. Non-standard residues stand in square brackets, D forms with d. No end group written: not given here. BCN = bicyclo[6.1.0]non-4-yn-9-ylmethyl carbonate as carbamate, click handle; TATA = O=C(CC[*:1])N1CN(C(=O)CC[*:2])CN(C(=O)CC[*:3])C1; tBuAla = CC(C)(C)C[C@H](N)C(=O)O; Nle = CCCC[C@H](N)C(=O)O; PYA = propargyl-acid
B1: BCY8584 (peptide)
peptide: XACIEEGQYCFADPYXCA
modifications: not fully specified; (PYA)-A-CiIEEGQYCiiF[D-A]DPY[Nle]Ciii-A; Cys on TATA scaffold
B2: BCY8581 (peptide)
peptide: XACIEEGQYCFADPYXCA
modifications: not fully specified; (PYA)-A-CiIEEGQYCiiF[D-A]DPY[Nle]Ciii-A; Cys on TATA scaffold
B3: BCY8150 (peptide)
peptide: Ac-ACIEK(BCN)GQYCFADPY[Nle]CA
modifications: linker 2-9-16 via TATA; not fully specified; also: tetramer of four peptide units on central hinge A (TET) via spacer S1A n=10
B4: BCY8582 (peptide)
peptide: XACIEEGQYCFADPYXCA
modifications: not fully specified; (PYA)-A-CiIEEGQYCiiF[D-A]DPY[Nle]Ciii-A; Cys on TATA scaffold
B5: BCY8583 (peptide)
peptide: XACIEEGQYCFADPYXCA
modifications: not fully specified; (PYA)-A-CiIEEGQYCiiF[D-A]DPY[Nle]Ciii-A; Cys on TATA scaffold
B6: BCY8151 (peptide)
peptide: Ac-ACIEEGK(BCN)YCFADPY[Nle]CA
modifications: linker 2-9-16 via TATA; not fully specified; also: trimer of three peptide units on central hinge B (TCA) via spacer S1A n=10
B7: BCY7845 (peptide)
peptide: Ac-ACIEEGK(PYA)YCFADPY[Nle]CA
modifications: linker 2-9-16 via TATA; not fully specified; also: tetramer of four peptide units on central hinge A (TET) via spacer S1A n=10
B8: BCY8935 (peptide)
peptide: XACIEEGQYCFXDPYXCA
modifications: (PYA)-A-CiIEEGQYCiiF[D-A]DPY[Nle]Ciii-A; Ci, Cii, Ciii cyclised on TATA
notes: Bicyclic peptide monomer; also called Monomer 10A
B9: BCY8926 (peptide)
peptide: Ac-ACIEK(PYA)GQYCF[dA]DPY[Nle]CA
modifications: linker 2-9-16 via TATA
notes: Bicyclic peptide monomer; also called Monomer 14A
B10: BCY8925 (peptide)
peptide: Ac-ACIE[dK](PYA)GQYCF[dA]DPY[Nle]CA
modifications: linker 2-9-16 via TATA
notes: Bicyclic peptide monomer; also called Monomer 13A
B11: BCY8097 (peptide)
peptide: ACIEEGQYCFADPYXCA
modifications: Ac-A-CiIEEGQYCiiFADPYK(BCN)Ciii-A; Ci, Cii, Ciii cyclised on TATA
notes: Bicyclic peptide monomer; also called Monomer 9-BCN
B12: BCY8142 (peptide)
peptide: Ac-ACIEK(BCN)GQYCFADPY[Nle]CA
modifications: linker 2-9-16 via TATA
notes: Bicyclic peptide monomer; also called Monomer 4-BCN
B13: BCY7745 (peptide)
peptide: Ac-ACIEEGK(PYA)YCFADPY[Nle]CA
modifications: linker 2-9-16 via TATA
notes: Bicyclic peptide monomer; also called Monomer 6A
B14: BCY7743 (peptide)
peptide: Ac-ACIEK(PYA)GQYCFADPY[Nle]CA
modifications: linker 2-9-16 via TATA
notes: Bicyclic peptide monomer; also called Monomer 4A
B15: BCY8143 (peptide)
peptide: Ac-ACIEEGK(BCN)YCFADPY[Nle]CA
modifications: linker 2-9-16 via TATA
notes: Bicyclic peptide monomer; also called Monomer 6-BCN
B16: BCY7748 (peptide)
peptide: ACIEEGQYCFADPYXCA
modifications: Ac-A-CiIEEGQYCiiFADPYK(PYA)Ciii-A; Ci, Cii, Ciii cyclised on TATA
notes: Bicyclic peptide monomer; also called Monomer 9A
B17: BCY7740 (peptide)
peptide: XACIEEGQYCFADPYXCA
modifications: (PYA)-A-CiIEEGQYCiiFADPY(Nle)Ciii-A; Ci, Cii, Ciii cyclised on TATA
notes: Bicyclic peptide monomer; also called Monomer 1A
B18: BCY7741 (peptide)
peptide: ACIEEGQYCFADPYXCX
modifications: Ac-A-CiIEEGQYCiiFADPY(Nle)Ciii-Dap(PYA); Ci, Cii, Ciii cyclised on TATA
notes: Bicyclic peptide monomer; also called Monomer 2A
B19: BCY8927 (peptide)
peptide: Ac-C[tBuAla]PK(PYA)[dA]PYCFADPY[Nle]CA
modifications: linker 1-8-15 via TATA
notes: Bicyclic peptide monomer; also called Monomer 11A
B20: BCY7747 (peptide)
peptide: Ac-ACIEEGQYCFADK(PYA)Y[Nle]CA
modifications: linker 2-9-16 via TATA
notes: Bicyclic peptide monomer; also called Monomer 8A
B21: BCY8144 (peptide)
peptide: Ac-ACIEEGQYCK(BCN)ADPY[Nle]CA
modifications: linker 2-9-16 via TATA
notes: Bicyclic peptide monomer; also called Monomer 7-BCN
B22: BCY7746 (peptide)
peptide: Ac-ACIEEGQYCK(PYA)ADPY[Nle]CA
modifications: linker 2-9-16 via TATA
notes: Bicyclic peptide monomer; also called Monomer 7A
B23: BCY8141 (peptide)
peptide: XACIEEGQYCFADPYXCA
modifications: (BCN)-A-CiIEEGQYCiiFADPY(Nle)Ciii-A; Ci, Cii, Ciii cyclised on TATA
notes: Bicyclic peptide monomer; also called Monomer 1-BCN
B24: BCY7742 (peptide)
peptide: Ac-ACIK(PYA)EGQYCFADPY[Nle]CA
modifications: linker 2-9-16 via TATA
notes: Bicyclic peptide monomer; also called Monomer 3A
B25: BCY8095 (peptide)
peptide: Ac-ACIK(BCN)EGQYCFADPY[Nle]CA
modifications: linker 2-9-16 via TATA
notes: Bicyclic peptide monomer; also called Monomer 3-BCN

The binders below were run against T1, CD137 on Jurkat reporter cells (Promega) (UniProt Q07011 24-255, limits assumed) (assay: cell-based or functional assay).
T1 sequence (Q07011 24-255 limits assumed): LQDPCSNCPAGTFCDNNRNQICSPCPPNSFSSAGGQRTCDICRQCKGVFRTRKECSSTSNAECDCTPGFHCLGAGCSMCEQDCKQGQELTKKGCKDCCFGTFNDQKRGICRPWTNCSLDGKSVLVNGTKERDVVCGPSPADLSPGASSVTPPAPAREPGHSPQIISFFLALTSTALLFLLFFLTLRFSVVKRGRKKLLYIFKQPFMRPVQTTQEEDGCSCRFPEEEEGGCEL

How did the “Average Fold EC50 Improvement relative to CD137L” value turn out when XACIEEGQYCFADPYXCA (not fully specified; (BCN)-A-CiIEEGQYCiiFADPY(Nle)Ciii-A; Cys on TATA scaffold) [BCY8149] was run?
Its value is 140 fold.

What about the “Average Relative Fold Induction relative to CD137L” value of the same binder?
Its value is 0.93 fold.

For B1, which “Fold Induction over Background” value is on record?
The value was less than 2 fold.

Which “Fold Induction over Background” value does the source give for B2 here?
Its value is less than 2 fold.

What does the source list for B3?
Average Fold EC50 Improvement relative to CD137L: 4.14 fold; Average Relative Fold Induction relative to CD137L: 0.77 fold

With B4 as the binder, how does the “Fold Induction over Background” value read?
The value was less than 2 fold.

B5 was tested. Which “Average Fold EC50 Improvement relative to CD137L” value did it give?
The value was 0.031 fold.

And the “Average Relative Fold Induction relative to CD137L” value?
The value was 3.14 fold.

For Ac-ACIEK(PYA)GQYCF[dA]DPY[Nle]CA (linker 2-9-16 via TATA; not fully specified) [BCY8937], which “Fold Induction over Background” value is on record?
The value was less than 2 fold.

What does the source list for B6?
Average Fold EC50 Improvement relative to CD137L: 213 fold; Average Relative Fold Induction relative to CD137L: 0.49 fold

Biological target: T1, CD137 on Jurkat reporter cells (Promega)
Assay: cell-based or functional assay
Remark: another data set of the same source

Which “Fold Induction over Background” value does the source give for Ac-ACIEK(PYA)GQYCFADPY[Nle]CA (linker 2-9-16 via TATA; not fully specified) [BCY8961] here?
The value was less than 2 fold.

With Ac-ACIEK(PYA)GQYCF[dA]DPY[Nle]CA (linker 2-9-16 via TATA; not fully specified) [BCY9113] as the binder, how does the “Fold Induction over Background” value read?
The value was less than 2 fold.

Which “Fold Induction over Background” value does the source give for Ac-ACIEK(PYA)GQYCFADPY[Nle]CA (linker 2-9-16 via TATA; not fully specified) [BCY8962] here?
The value was less than 2 fold.

Which “Fold Induction over Background” value does the source give for Ac-C[tBuAla]PE[dK](PYA)PYCFADPY[Nle]CA (linker 1-8-15 via TATA; not fully specified) [BCY8948] here?
The value was less than 2 fold.

How did the “Fold Induction over Background” value turn out when Ac-ACIEK(PYA)GQYCFADPY[Nle]CA (linker 2-9-16 via TATA; not fully specified) [BCY8959] was run?
The value was less than 2 fold.

Which “Fold Induction over Background” value does the source give for Ac-ACIEK(PYA)GQYCFADPY[Nle]CA (linker 2-9-16 via TATA; not fully specified) [BCY8957] here?
Its value is less than 2 fold.

With B7 as the binder, how does the “Average EC50” value read?
The value was 0.57 nM.

And the Average fold induction?
Its Average fold induction is 6.3 fold.

How did the “Fold Induction over Background” value turn out when Ac-ACIEK(PYA)GQYCFADPY[Nle]CA (linker 2-9-16 via TATA; not fully specified) [BCY8965] was run?
Its value is less than 2 fold.

With Ac-C[tBuAla]PE[dK](PYA)PYCFADPY[Nle]CA (linker 1-8-15 via TATA; not fully specified) [BCY8947] as the binder, how does the “Average Fold EC50 Improvement relative to BCY7845” value read?
Its value is 1.33 fold.

And the “Average Relative Fold Induction relative to BCY7845” value?
Its value is 0.62 fold.

These binders were tested against T2, Recombinant human CD137 (R&D systems), biotinylated (human, UniProt Q07011 24-186, biotinylated with EZ-Link Sulfo-NHS-LC-LC-Biotin) (assay: SPR (Biacore), biotinylated human CD137 captured on streptavidin chip).
T2 construct: Bought protein; Captured on a streptavidin chip; also called human CD137 protein; 4-1BB
T2 sequence (Q07011 24-186 limits assumed): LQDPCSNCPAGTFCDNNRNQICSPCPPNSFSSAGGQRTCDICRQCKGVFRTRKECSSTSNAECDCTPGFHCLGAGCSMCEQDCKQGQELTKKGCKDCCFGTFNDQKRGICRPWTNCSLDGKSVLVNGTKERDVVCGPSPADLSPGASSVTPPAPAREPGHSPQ

Does B8 bind?
Result: no binding (tested: No binding up to 5 µM)

Does B9 bind?
Result: no binding (tested: No binding up to 5 µM)

Does B10 bind?
Result: no binding (tested: No binding up to 5 µM)

Each binder was assayed against T2, Recombinant human CD137 (R&D systems), … (assay: SPR (Biacore), biotinylated human CD137 captured on streptavidin chip, peptide as analyte, 25°C).
Protocol: (§1) Biacore experiments were performed to determine kₐ (M⁻¹s⁻¹), kd (s⁻¹), KD (nM) values of monomeric peptides binding to human CD137 protein. […] The protein was desalted to remove uncoupled biotin using spin columns into PBS.
(§2) For analysis of peptide binding, a Biacore T200 or a Biacore 3000 instrument was used with a XanTec CMD500D chip. Streptavidin was immobilized on the chip using standard amine-coupling chemistry at 25° C. with HBS-N(10 mM HEPES, 0.15 M NaCl, pH 7.4) as the running buffer. Briefly, the carboxymethyl dextran surface was activated with a 7 min injection of a 1:1 ratio of 0.4 M 1-ethyl-3-(3-dimethylaminopropyl) carbodiimide hydrochloride (EDC)/0.1 M N-hydroxy succinimide (NHS) at a flow rate of 10 μl/min. For capture of streptavidin, the protein was diluted to 0.2 mg/ml in 10 mM sodium acetate (pH 4.5) and captured by injecting 120 μl of onto the activated chip surface. Residual activated groups were blocked with a 7 min injection of 1 M ethanolamine (pH 8.5) and biotinylated CD137 captured to a level of 270-1500 RU. Buffer was changed to PBS/0.05% Tween 20 and a dilution series of the peptides was prepared in this buffer with a final DMSO concentration of 0.5%. The top peptide concentration was 500 nM with 6 further 2-fold or 3-fold dilutions. The SPR analysis was run at 25° C. at a flow rate of 90 μl/min with 60 seconds association and 900 seconds dissociation. After each cycle a regeneration step (10 μl of 10 mM glycine pH 2) was employed. Data were corrected for DMSO excluded volume effects as needed. All data were double-referenced for blank injections and reference surface using standard processing procedures and data processing and kinetic fitting were performed using Scrubber software, version 2.0c (BioLogic Software). Data were fitted using simple 1:1 binding model allowing for mass transport effects where appropriate.

How did the Kd turn out when B11 was run?
Its Kd is 99.4 nM.

For B12, which Kd is on record?
The Kd was 321 nM.

With B13 as the binder, how does the Kd read?
Its Kd is 63.1 nM.

B14 was tested. Which Kd did it give?
Its Kd is 101 nM.

How did the Kd turn out when B15 was run?
The Kd was 112 nM.

With B16 as the binder, how does the Kd read?
Its Kd is 264 nM.

For B17, which Kd is on record?
The Kd was 88 nM.

Which Kd does the source give for B18 here?
The Kd was 122 nM.

For Ac-C[tBuAla]PE[dK](PYA)PYCFADPY[Nle]CA (linker 1-8-15 via TATA, also called Monomer 12A) [BCY8928], which Kd is on record?
Its Kd is 11.4 nM.

How did the Kd turn out when B19 was run?
Its Kd is 12.3 nM.

With B20 as the binder, how does the Kd read?
The Kd was 361 nM.

Which Kd does the source give for B21 here?
Its Kd is 66.7 nM.

Which Kd does the source give for B22 here?
The Kd was 260 nM.

Which Kd does the source give for B23 here?
The Kd was 57.8 nM.

The binders below were run against T2, Recombinant human CD137 (R&D systems), … (assay: SPR (Biacore), biotinylated human CD137 captured on streptavidin chip, peptide as analyte, 25°C; BCY7742 (Monomer 3A), a separate monomer number from BCY8095).
Protocol: as §1
as §2, with “After each cycle a regeneration step (10 μl of 10 mM glycine pH 2) was employed. Data were corrected for DMSO excluded volume effects as needed. All data were double-referenced for blank injections and reference surface using standard processing procedures and data processing and kinetic fitting were performed using Scrubber software, version 2.0c (BioLogic Software). Data were fitted using simple 1:1 binding model allowing for mass transport effects where appropriate.” left out

How did the Kd turn out when B24 was run?
The Kd was 855 nM.

What follows are binders tested against T2, Recombinant human CD137 (R&D systems), … (assay: SPR (Biacore), biotinylated human CD137 captured on streptavidin chip, peptide as analyte, 25°C; BCY8095 (Monomer 3-BCN), a separate monomer number from BCY7742).
Protocol: as §1
as §2, with “After each cycle a regeneration step (10 μl of 10 mM glycine pH 2) was employed. Data were corrected for DMSO excluded volume effects as needed. All data were double-referenced for blank injections and reference surface using standard processing procedures and data processing and kinetic fitting were performed using Scrubber software, version 2.0c (BioLogic Software). Data were fitted using simple 1:1 binding model allowing for mass transport effects where appropriate.” left out

With B25 as the binder, how does the Kd read?
The Kd was 0.685 nM.
